Results from paper PMC2635920 (Nature structural & molecular biology, 2009).
One block for each binder: values may come before it.

B2: Tip20p, full-length (residues 1-701) (natural protein, S. cerevisiae, UniProt P33891 1-701, looked up)
chain: MNGIDDLLNINDRIKQVQNERNELASKLQNLKQSLASNDTEVALSEVIAQDIIEVGASVEGLEQLRAKYGDLQILNKLEKVAVQQTQMQAGVDKLDSFERQLDELAEQPPDQFTLDDVKALHSKLTSVFATVPQINNIDSQYAAYNKLKSKVTGKYNDVIIQRLATNWSNTFDQKLLEAQWDTQKFASTSVGLVKCLRENSTKLYQLSLLYLPLEEETQNGDSERPLSRSNNNQEPVLWNFKSLANNFNVRFTYHFHATSSSSKIETYFQFLNDYLAENLYKCINIFHDDCNGLTKPVIHEQFINYVLQPIRDKVRSTLFQNDLKTLIVLISQILATDKNLLNSFHYHGLGLVSLISDEVWEKWINYEVEMANRQFINITKNPEDFPKSSQNFVKLINKIYDYLEPFYDLDFDLLVRYKLMTCSLIFMNLTSSYLDYILTVDSLNETRTKEQELYQTMAKLQHVNFVYRKIKSLSSNFIFIQLTDIVNSTESKKYNSLFQNVENDYEKAMSTDMQNSIVHRIQKLLKETLRNYFKISTWSTLEMSVDENIGPSSVPSAELVNSINVLRRLINKLDSMDIPLAISLKVKNELLNVIVNYFTESILKLNKFNQNGLNQFLHDFKSLSSILSLPSHATNYKCMSLHELVKILKLKYDPNNQQFLNPEYIKTGNFTSLKEAYSIKYLKDTKIQDALYRIIYGNIL

Experiments:
[1] = target: T1, Sec39p, full-length (residues 1-709) (S. cerevisiae, UniProt Q12745 1-709); assay: SEC
T1 sequence (looked up): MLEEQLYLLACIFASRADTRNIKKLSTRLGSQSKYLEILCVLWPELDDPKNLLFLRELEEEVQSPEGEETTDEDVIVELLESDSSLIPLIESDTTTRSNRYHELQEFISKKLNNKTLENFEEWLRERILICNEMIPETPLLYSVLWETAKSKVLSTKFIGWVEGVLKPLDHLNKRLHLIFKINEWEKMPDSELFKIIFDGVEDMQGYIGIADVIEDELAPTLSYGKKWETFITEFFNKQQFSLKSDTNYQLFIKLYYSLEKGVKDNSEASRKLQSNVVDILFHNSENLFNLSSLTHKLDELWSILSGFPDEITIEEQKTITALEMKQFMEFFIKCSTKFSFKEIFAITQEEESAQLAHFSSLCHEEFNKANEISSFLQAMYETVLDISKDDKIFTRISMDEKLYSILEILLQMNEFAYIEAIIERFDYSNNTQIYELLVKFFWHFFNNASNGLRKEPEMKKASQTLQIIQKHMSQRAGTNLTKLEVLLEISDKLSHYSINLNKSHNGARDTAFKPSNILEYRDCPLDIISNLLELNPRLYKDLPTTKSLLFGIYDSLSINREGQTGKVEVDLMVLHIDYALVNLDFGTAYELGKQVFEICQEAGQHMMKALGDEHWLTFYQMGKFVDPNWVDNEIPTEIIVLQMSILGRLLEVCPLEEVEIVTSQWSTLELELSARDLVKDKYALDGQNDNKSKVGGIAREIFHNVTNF

[2] = target: T2, Dsl1p, full-length (residues 1-754) (S. cerevisiae, UniProt P53847 1-754); assay: SEC
T2 sequence (looked up): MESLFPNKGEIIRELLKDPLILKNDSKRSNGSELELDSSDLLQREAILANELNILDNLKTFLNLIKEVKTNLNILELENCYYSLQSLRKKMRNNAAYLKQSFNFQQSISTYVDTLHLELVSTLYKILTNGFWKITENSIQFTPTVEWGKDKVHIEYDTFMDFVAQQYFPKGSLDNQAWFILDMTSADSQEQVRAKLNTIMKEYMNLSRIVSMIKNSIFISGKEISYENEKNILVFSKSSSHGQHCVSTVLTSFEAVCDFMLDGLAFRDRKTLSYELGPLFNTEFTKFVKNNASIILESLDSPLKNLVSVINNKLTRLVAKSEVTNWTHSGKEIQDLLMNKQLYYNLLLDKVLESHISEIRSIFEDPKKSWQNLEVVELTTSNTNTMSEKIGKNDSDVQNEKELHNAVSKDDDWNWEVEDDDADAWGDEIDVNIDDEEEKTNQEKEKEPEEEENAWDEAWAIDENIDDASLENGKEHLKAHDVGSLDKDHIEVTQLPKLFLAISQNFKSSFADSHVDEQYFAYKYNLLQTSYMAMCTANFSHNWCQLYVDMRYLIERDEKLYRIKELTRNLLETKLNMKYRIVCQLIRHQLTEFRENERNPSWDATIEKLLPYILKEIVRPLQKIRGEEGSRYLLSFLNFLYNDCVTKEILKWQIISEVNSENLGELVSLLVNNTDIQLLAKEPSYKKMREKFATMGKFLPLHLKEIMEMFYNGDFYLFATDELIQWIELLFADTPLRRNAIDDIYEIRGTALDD

Dsl1p-Sec39p complex = target: T3, Dsl1p-Sec39p complex (S. cerevisiae, UniProt P53847 1-754; Q12745 1-709); assay: SEC
T3 sequence (looked up) 1: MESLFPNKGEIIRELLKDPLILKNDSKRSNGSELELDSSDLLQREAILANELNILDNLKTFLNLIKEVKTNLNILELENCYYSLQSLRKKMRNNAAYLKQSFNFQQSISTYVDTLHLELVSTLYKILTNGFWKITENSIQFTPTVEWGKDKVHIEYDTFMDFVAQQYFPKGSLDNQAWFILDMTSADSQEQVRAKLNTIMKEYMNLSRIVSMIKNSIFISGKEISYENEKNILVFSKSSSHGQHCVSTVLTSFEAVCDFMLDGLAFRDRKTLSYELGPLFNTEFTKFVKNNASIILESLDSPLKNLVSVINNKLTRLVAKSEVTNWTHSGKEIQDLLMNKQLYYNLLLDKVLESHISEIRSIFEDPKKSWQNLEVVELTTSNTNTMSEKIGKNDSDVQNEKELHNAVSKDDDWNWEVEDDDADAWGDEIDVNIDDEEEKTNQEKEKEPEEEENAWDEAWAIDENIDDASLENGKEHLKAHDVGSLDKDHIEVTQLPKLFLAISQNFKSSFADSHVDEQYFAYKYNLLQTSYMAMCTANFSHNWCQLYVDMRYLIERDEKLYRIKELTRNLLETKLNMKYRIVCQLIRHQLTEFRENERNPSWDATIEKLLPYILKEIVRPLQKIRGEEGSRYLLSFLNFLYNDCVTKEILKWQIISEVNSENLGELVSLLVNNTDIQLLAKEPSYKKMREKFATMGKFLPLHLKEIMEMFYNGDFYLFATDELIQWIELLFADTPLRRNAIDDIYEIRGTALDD
T3 sequence (looked up) 2: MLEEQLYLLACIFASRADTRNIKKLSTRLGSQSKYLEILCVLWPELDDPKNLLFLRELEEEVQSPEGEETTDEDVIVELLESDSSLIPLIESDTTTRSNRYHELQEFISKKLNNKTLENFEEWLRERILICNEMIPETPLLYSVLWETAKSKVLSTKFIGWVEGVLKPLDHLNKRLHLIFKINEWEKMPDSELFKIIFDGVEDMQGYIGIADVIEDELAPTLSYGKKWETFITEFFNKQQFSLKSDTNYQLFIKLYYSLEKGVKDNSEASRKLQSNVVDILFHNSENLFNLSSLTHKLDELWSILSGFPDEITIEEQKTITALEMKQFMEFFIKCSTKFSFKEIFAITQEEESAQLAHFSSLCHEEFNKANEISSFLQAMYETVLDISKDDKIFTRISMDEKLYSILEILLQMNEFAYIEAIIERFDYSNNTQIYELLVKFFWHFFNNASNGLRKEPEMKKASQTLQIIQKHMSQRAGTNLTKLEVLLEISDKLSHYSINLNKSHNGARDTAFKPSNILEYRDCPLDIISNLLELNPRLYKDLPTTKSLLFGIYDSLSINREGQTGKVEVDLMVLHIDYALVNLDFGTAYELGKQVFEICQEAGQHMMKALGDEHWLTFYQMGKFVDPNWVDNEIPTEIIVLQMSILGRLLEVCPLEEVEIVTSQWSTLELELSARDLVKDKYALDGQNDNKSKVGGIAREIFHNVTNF

[3] = target: B2; assay: SEC
[4] = target: T4, Dsl1p residues 37-339, as the C-terminal part of the Tip20p-Dsl1p fusion protein (S. cerevisiae, UniProt P53847 37-339); assay: crystal structure
T4 sequence (looked up): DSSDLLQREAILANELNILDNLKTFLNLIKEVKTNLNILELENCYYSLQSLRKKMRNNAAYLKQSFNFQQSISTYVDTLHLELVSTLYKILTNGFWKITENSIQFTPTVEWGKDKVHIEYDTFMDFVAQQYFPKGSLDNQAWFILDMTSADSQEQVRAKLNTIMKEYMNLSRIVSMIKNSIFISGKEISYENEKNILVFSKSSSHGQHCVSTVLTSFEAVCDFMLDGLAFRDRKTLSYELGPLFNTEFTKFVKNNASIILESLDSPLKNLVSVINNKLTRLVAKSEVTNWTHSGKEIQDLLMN

B1: Dsl1ΔN1 (Dsl1p residues 340-754) (domain or fragment, S. cerevisiae, UniProt P53847 340-754, looked up)
chain: KQLYYNLLLDKVLESHISEIRSIFEDPKKSWQNLEVVELTTSNTNTMSEKIGKNDSDVQNEKELHNAVSKDDDWNWEVEDDDADAWGDEIDVNIDDEEEKTNQEKEKEPEEEENAWDEAWAIDENIDDASLENGKEHLKAHDVGSLDKDHIEVTQLPKLFLAISQNFKSSFADSHVDEQYFAYKYNLLQTSYMAMCTANFSHNWCQLYVDMRYLIERDEKLYRIKELTRNLLETKLNMKYRIVCQLIRHQLTEFRENERNPSWDATIEKLLPYILKEIVRPLQKIRGEEGSRYLLSFLNFLYNDCVTKEILKWQIISEVNSENLGELVSLLVNNTDIQLLAKEPSYKKMREKFATMGKFLPLHLKEIMEMFYNGDFYLFATDELIQWIELLFADTPLRRNAIDDIYEIRGTALDD
binding result [1]: binds

Binder: B2
binding result [2]: binds
binding result (Dsl1p-Sec39p complex): binds

B3: Dsl1ΔC (L41E) (domain or fragment, S. cerevisiae, UniProt P53847 1-361, looked up)
chain: MESLFPNKGEIIRELLKDPLILKNDSKRSNGSELELDSSDELQREAILANELNILDNLKTFLNLIKEVKTNLNILELENCYYSLQSLRKKMRNNAAYLKQSFNFQQSISTYVDTLHLELVSTLYKILTNGFWKITENSIQFTPTVEWGKDKVHIEYDTFMDFVAQQYFPKGSLDNQAWFILDMTSADSQEQVRAKLNTIMKEYMNLSRIVSMIKNSIFISGKEISYENEKNILVFSKSSSHGQHCVSTVLTSFEAVCDFMLDGLAFRDRKTLSYELGPLFNTEFTKFVKNNASIILESLDSPLKNLVSVINNKLTRLVAKSEVTNWTHSGKEIQDLLMNKQLYYNLLLDKVLESHISEIRS
binding result [3]: binds

Second part, the binder after the results:

binding result [1]: binds
B4: Dsl1ΔN (Dsl1p residues 57-754) (domain or fragment, S. cerevisiae, UniProt P53847 57-754, looked up)
chain: NLKTFLNLIKEVKTNLNILELENCYYSLQSLRKKMRNNAAYLKQSFNFQQSISTYVDTLHLELVSTLYKILTNGFWKITENSIQFTPTVEWGKDKVHIEYDTFMDFVAQQYFPKGSLDNQAWFILDMTSADSQEQVRAKLNTIMKEYMNLSRIVSMIKNSIFISGKEISYENEKNILVFSKSSSHGQHCVSTVLTSFEAVCDFMLDGLAFRDRKTLSYELGPLFNTEFTKFVKNNASIILESLDSPLKNLVSVINNKLTRLVAKSEVTNWTHSGKEIQDLLMNKQLYYNLLLDKVLESHISEIRSIFEDPKKSWQNLEVVELTTSNTNTMSEKIGKNDSDVQNEKELHNAVSKDDDWNWEVEDDDADAWGDEIDVNIDDEEEKTNQEKEKEPEEEENAWDEAWAIDENIDDASLENGKEHLKAHDVGSLDKDHIEVTQLPKLFLAISQNFKSSFADSHVDEQYFAYKYNLLQTSYMAMCTANFSHNWCQLYVDMRYLIERDEKLYRIKELTRNLLETKLNMKYRIVCQLIRHQLTEFRENERNPSWDATIEKLLPYILKEIVRPLQKIRGEEGSRYLLSFLNFLYNDCVTKEILKWQIISEVNSENLGELVSLLVNNTDIQLLAKEPSYKKMREKFATMGKFLPLHLKEIMEMFYNGDFYLFATDELIQWIELLFADTPLRRNAIDDIYEIRGTALDD

binding result [4]: binds
Binder: MNGIDDLLNINDRIKQVQNERNELASKLQNLKQSLASNDT (domain or fragment, S. cerevisiae, UniProt P33891 1-40, looked up) [Tip20p residues 1-40, as the N-terminal part of the Tip20p-Dsl1p fusion protein]
